According to the supplement of paper PMC11316812:
± gives the standard deviation of the averaged measurements.

Tests used:
[1] = tested on: hTERT-HMEC; assay: percentage of EdU-negative (G0-arrested) nuclei per well, 72 h; higher = more G0 arrest; details: reference: sequence is the full UniProt precursor, the tested protein was the secreted form or ectodomain
[2] = tested on: MCF7; assay: as above; details: reference: sequence is the full UniProt precursor, the tested protein was the secreted form or ectodomain
[3] = protein concentration 0.0193425 µM
[4] = protein concentration 0.193425 µM
[5] = protein concentration 0.0225 µM
[6] = protein concentration 0.02085 µM
[7] = protein concentration 0.2085 µM
[8] = protein concentration 0.00914286 µM
[9] = protein concentration 0.0914286 µM
[10] = protein concentration 0.0292375 µM
[11] = protein concentration 0.292375 µM
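Also: secreted proteins added to cultured cells, EdU pulse at the end, nuclei found by Hoechst imaging, EdU status from nuclear versus surrounding ring intensity ratio, PBS as neutral control.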

MDLSAAAALCLWLLSACRPRDGLEAAAVLRAAGAGPVRSPGGGGGGGGGGRTLAQAAGAAAVPAAAVPRARAARRAAGSGFRNGSVVPHHFMMSLYRSLAGRAPAGAAAVSASGHGRADTITGFTDQATQDESAAETGQSFLFDVSSLNDADEVVGAELRVLRRGSPESGPGSWTSPPLLLLSTCPGAARAPRLLYSRAAEPLVGQRWEAFDVADAMRRHRREPRPPRAFCLLLRAVAGPVPSPLALRRLGFGWPGGGGSAAEERAVLVVSSRTQRKESLFREIRAQARALGAALASEPLPDPGTGTASPRAVIGGRRRRRTALAGTRTAQGSGGGAGRGHGRRGRSRCSRKPLHVDFKELGWDDWIIAPLDYEAYHCEGLCDFPLRSHLEPTNHAIIQTLLNSMAPDAAPASCCVPARLSPISILYIDAANNVVYKQYEDMVVEACGCR [Q7Z4P5]
percentage of EdU-negative [1, 3]: 5.309 ± 0.0057% | percentage of EdU-negative [1, 4]: 5.34 ± 1.2% | percentage of EdU-negative [2, 3]: 26.75 ± 0.031% | percentage of EdU-negative [2, 4]: 28.9 ± 2.2%

MDLSLLWVLLPLVTMAWGQYGDYGYPYQQYHDYSDDGWVNLNRQGFSYQCPQGQVIVAVRSIFSKKEGSDRQWNYACMPTPQSLGEPTECWWEEINRAGMEWYQTCSNNGLVAGFQSRYFESVLDREWQFYCCRYSKRCPYSCWLTTEYPGHYGEEMDMISYNYDYYIRGATTTFSAVERDRQWKFIMCRMTEYDCEFANV
percentage of EdU-negative [1, 5]: 5.38 ± 0.62% | percentage of EdU-negative ([1]; protein concentration 0.225 µM): 4.92 ± 0.97% | percentage of EdU-negative [2, 5]: 25.1 ± 0.98% | percentage of EdU-negative ([2]; protein concentration 0.225 µM): 26.2 ± 0.3%

MDLSRPRWSLWRRVFLMASLLACGICQASGQIFITQTLGIKGYRTVVALDKVPEDVQEYSWYWGANDSAGNMIISHKPPSAQQPGPMYTGRERVNREGSLLIRPTALNDTGNYTVRVVAGNETQRATGWLEVLELGSNLGISVNASSLVENMDSVAADCLTNVTNITWYVNDVPTSSSDRMTISPDGKTLVILRVSRYDRTIQCMIESFPEIFQRSERISLTVAYGPDYVLLRSNPDDFNGIVTAEIGSQVEMECICYSFLDLKYHWIHNGSLLNFSDAKMNLSSLAWEQMGRYRCTVENPVTQLIMYMDVRIQAPHEDLTCCPQRFLHLRIHGDVPHHADSAGWRLHLWSPDPCSDQPLLNQDKSGSMSVHPRPEDKTRRASR [A8MTB9]
percentage of EdU-negative [1, 5]: 4.89 ± 0.18% | percentage of EdU-negative ([1]; protein concentration 0.225 µM): 4.46 ± 0.032% | percentage of EdU-negative [2, 5]: 28.6 ± 0.05% | percentage of EdU-negative ([2]; protein concentration 0.225 µM): 27.4 ± 0.32%

MDLVLKRCLLHLAVIGALLAVGATKVPRNQDWLGVSRQLRTKAWNRQLYPEWTEAQRLDCWRGGQVSLKVSNDGPTLIGANASFSIALNFPGSQKVLPDGQVIWVNNTIINGSQVWGGQPVYPQETDDACIFPDGGPCPSGSWSQKRSFVYVWKTWGQYWQVLGGPVSGLSIGTGRAMLGTHTMEVTVYHRRGSRSYVPLAHSSSAFTITDQVPFSVSVSQLRALDGGNKHFLRNQPLTFALQLHDPSGYLAEADLSYTWDFGDSSGTLISRALVVTHTYLEPGPVTAQVVLQAAIPLTSCGSSPVPGTTDGHRPTAEAPNTTAGQVPTTEVVGTTPGQAPTAEPSGTTSVQVPTTEVISTAPVQMPTAESTGMTPEKVPVSEVMGTTLAEMSTPEATGMTPAEVSIVVLSGTTAAQVTTTEWVETTARELPIPEPEGPDASSIMSTESITGSLGPLLDGTATLRLVKRQVPLDCVLYRYGSFSVTLDIVQGIESAEILQAVPSGEGDAFELTVSCQGGLPKEACMEISSPGCQPPAQRLCQPVLPSPACQLVLHQILKGGSGTYCLNVSLADTNSLAVVSTQLIMPGQEAGLGQVPLIVGILLVLMAVVLASLIYRRRLMKQDFSVPQLPHSSSHWLRLPRIFCSCPIGENSPLLSGQQV
percentage of EdU-negative [1, 6]: 4.37 ± 0.18% | percentage of EdU-negative [1, 7]: 5.18 ± 0.52% | percentage of EdU-negative [2, 6]: 25.3 ± 1.8% | percentage of EdU-negative [2, 7]: 25.4 ± 2.4%

MDLWNLSWFLFLDALLVISGLATPENFDVDGGMDQDIFDINEGLGLDLFEGDIRLDRAQIRNSIIGEKYRWPHTIPYVLEDSLEMNAKGVILNAFERYRLKTCIDFKPWAGETNYISVFKGSGCWSSVGNRRVGKQELSIGANCDRIATVQHEFLHALGFWHEQSRSDRDDYVRIMWDRILSGREHNFNTYSDDISDSLNVPYDYTSVMHYSKTAFQNGTEPTIVTRISDFEDVIGQRMDFSDSDLLKLNQLYNCSSSLSFMDSCSFELENVCGMIQSSGDNADWQRVSQVPRGPESDHSNMGQCQGSGFFMHFDSSSVNVGATAVLESRTLYPKRGFQCLQFYLYNSGSESDQLNIYIREYSADNVDGNLTLVEEIKEIPTGSWQLYHVTLKVTKKFRVVFEGRKGSGASLGGLSIDDINLSETRCPHHIWHIRNFTQFIGSPNGTLYSPPFYSSKGYAFQIYLNLAHVTNAGIYFHLISGANDDQLQWPCPWQQATMTLLDQNPDIRQRMSNQRSITTDPFMTTDNGNYFWDRPSKVGTVALFSNGTQFRRGGGYGTSAFITHERLKSRDFIKGDDVYILLTVEDISHLNSTQIQLTPAPSVQDLCSKTTCKNDGVCTVRDGKAECRCQSGEDWWYMGERCEKRGSTRDTIVIAVSSTVAVFALMLIITLVSVYCTRKKYRERMSSNRPNLTPQNQHAF
percentage of EdU-negative [1, 8]: 6.01 ± 0.12% | percentage of EdU-negative [1, 9]: 6.74 ± 0.94% | percentage of EdU-negative [2, 8]: 24.7 ± 3.1% | percentage of EdU-negative [2, 9]: 27.5 ± 1.1%

MDLWQLLLTLALAGSSDAFSGSEATAAILSRAPWSLQSVNPGLKTNSSKEPKFTKCRSPERETFSCHWTDEVHHGTKNLGPIQLFYTRRNTQEWTQEWKECPDYVSAGENSCYFNSSFTSIWIPYCIKLTSNGGTVDEKCFSVDEIVQPDPPIALNWTLLNVSLTGIHADIQVRWEAPRNADIQKGWMVLEYELQYKEVNETKWKMMDPILTTSVPVYSLKVDKEYEVRVRSKQRNSGNYGEFSEVLYVTLPQMSQFTCEEDFYFPWLLIIIFGIFGLTVMLFVFLFSKQQRIKMLILPPVPVPKIKGIDPDLLKEGKLEEVNTILAIHDSYKPEFHSDDSWVEFIELDIDEPDEKTEESDTDRLLSSDHEKSHSNLGVKDGDSGRTSCCEPDILETDFNANDIHEGTSEVAQPQRLKGEADLLCLDQKNQNNSPYHDACPATQQPSVIQAEKNKPQPLPTEGAESTHQAAHIQLSNPSSLSNIDFYAQVSDITPAGSVVLSPGQKNKAGMSQCDMHPEMVSLCQENFLMDNAYFCEADAKKCIPVAPHIKVESHIQPSLNQEDIYITTESLTTAAGRPGTGEHVPGSEMPVPDYTSIHIVQSPQGLILNATALPLPDKEFLSSCGYVSTDQLNKIMP
percentage of EdU-negative [1, 10]: 4.42 ± 0.8% | percentage of EdU-negative [1, 11]: 6.44 ± 1.3% | percentage of EdU-negative [2, 10]: 25 ± 3.3% | percentage of EdU-negative [2, 11]: 24.5 ± 1.6%
